Consider two substances from patent US10435668.

Assay [1] has as its target 2C T cell receptor on CD8+ T cells of 2C TCR transgenic mice (mouse). Description: flow cytometry off-rate assay on naive 2C T cells, derived from off-rate. A general note: A flow cytometer gives signals particle by particle.
The target is the same in assay [2]. Description: estimated from dissociation data, activated 2C T cells.
For assay [3] the target is unchanged. In words: flow cytometry off-rate assay on activated 2C T cells, APC-labeled MHC-Ig, 1B2 added to prevent re-binding, exponential fit.
For assay [4] the target is unchanged. Description: estimated from dissociation data, naive 2C T cells; one contact is assumed for the dimer on naive cells.
The target is the same in assay [5]. In words: flow cytometry off-rate assay on naive 2C T cells, APC-labeled MHC-Ig, 1B2 added to prevent re-binding, exponential fit.
For assay [6] the target is unchanged. Description: flow cytometry off-rate assay on activated 2C T cells, derived from off-rate.
The target is the same in assay [7]. Description: estimated from dissociation data, naive 2C T cells.
Assay [8] shares this target. Description: flow cytometry off-rate assay on activated 2C T cells, APC-labeled nanoparticles bearing K^b-SIY alone, 1B2 added to prevent re-binding, exponential fit.
For assay [9] the target is unchanged. Description: flow cytometry, Alexa 647 labeled particles bound to activated 2C T cells (seven days after peptide activation).
Assay [10] deals with pmel T cell receptor on CD8+ T cells of pMEL TCR transgenic mice (mouse) (UniProt Q60696). In words: flow cytometry, Alexa 647 labeled particles on control non-cognate CD44lo pmel T cells.
The target in assay [11] is 2C T cell receptor on CD8+ T cells of 2C TCR transgenic mice (mouse). Description: estimated from dissociation data, naive cells (6.8 contacts).
For assay [12] the target is unchanged. Description: off-rate assay, flow cytometry, activated against naive T cells.
For assay [13] the target is unchanged. In words: estimated from dissociation data, activated cells (12.6 contacts).
Assay [14] shares this target. In words: flow cytometry, Alexa 647 labeled particles bound to naive CD44lo 2C T cells.
For assay [15] the target is unchanged. Description: flow cytometry off-rate assay on naive 2C T cells, APC-labeled nanoparticles bearing K^b-SIY alone, 1B2 added to prevent re-binding, exponential fit.
The target is the same in assay [16]. Description: equilibrium particle binding assay, flow cytometry, activated against naive T cells.

Chain of UniProt Q60696 (Q60696 whole entry): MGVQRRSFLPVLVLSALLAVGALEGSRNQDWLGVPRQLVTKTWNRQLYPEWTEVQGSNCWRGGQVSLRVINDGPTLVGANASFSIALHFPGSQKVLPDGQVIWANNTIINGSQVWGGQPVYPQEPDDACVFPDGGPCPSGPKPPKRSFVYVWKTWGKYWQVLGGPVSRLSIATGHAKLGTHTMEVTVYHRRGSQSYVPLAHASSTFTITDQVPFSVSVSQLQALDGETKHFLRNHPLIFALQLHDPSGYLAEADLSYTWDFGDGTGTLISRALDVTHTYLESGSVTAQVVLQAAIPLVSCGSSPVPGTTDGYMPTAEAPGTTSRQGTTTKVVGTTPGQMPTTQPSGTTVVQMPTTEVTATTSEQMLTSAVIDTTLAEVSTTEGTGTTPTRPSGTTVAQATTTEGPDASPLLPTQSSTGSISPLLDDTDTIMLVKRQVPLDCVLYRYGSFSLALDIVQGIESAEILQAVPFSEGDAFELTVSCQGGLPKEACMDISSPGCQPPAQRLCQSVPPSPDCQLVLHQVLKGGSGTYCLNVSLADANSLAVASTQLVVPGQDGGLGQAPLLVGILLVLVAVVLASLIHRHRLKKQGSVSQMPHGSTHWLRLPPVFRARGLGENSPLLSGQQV

“K^b-SIY MHC-Ig dimer (soluble K^b-Ig loaded with SIY peptide) (from UniProt P01901 22-305) (peptide-MHC)”: the Half-Life in assay [1] came out at 1.3 min; in assay [6] it was 1.87 min. The figures for the TCR-MHC Contacts in [2] and in [4] were 1.7 contacts and 1 contacts, respectively. Moreover, the koff in assay [3] amounted to 0.0052 s⁻¹; in assay [5], 0.0089 s⁻¹.

As to “Nanoparticles bearing K^b-SIY MHC-Ig alone (iron-dextran nanoparticle, no anti-CD28) (from UniProt P01901 22-305) (peptide-MHC)”, the TCR-MHC Contacts in assay [7] was 6.8 contacts; in [2], 12.6 contacts. For the same substance, the koff in [8] worked out at 0.0009 s⁻¹; in assay [15], 0.002 s⁻¹. Also, the Half-Life in assay [1] is 8.85 min; in assay [6], 16.4 min. Moreover, the MFI in [9] was found to be 89 MFI; in [10], 21 MFI; in [14] it was 179 MFI. The percent of MHC-Ig dimers on the particle surface in TCR-MHC contacts in assay [11] is 11%; in assay [13] it was 22%. In assay [12], this substance came in with a fold slower disassociation from activated than from naive cells of 2 fold. Further, the fold fewer nanoparticles bound at equilibrium by activated than by naive cells in assay [16] is 2 fold.

The koff is the rate constant with which the complex falls apart. A low value points to a long-lived complex.
